Test [1] deals with Biotinylated human Amyloid beta 1-42 peptide (human). As to the kind of experiment: HTRF epitope competition, purified scFv against Abet0042 IgG (competitor) for biotinylated human Amyloid beta 1-42. A general note: In TR-FRET formats the signal depends on donor and acceptor labels being close together.
The target is the same in test [2]. As to the kind of experiment: SPR (BIAcore T-100), biotinylated peptide on SA chip, scFv 12.5-400 nM, 1:1 Langmuir. (In general: Surface plasmon resonance follows binding to a sensor surface in real time, without labels.)

Where a chain is given by its changes, count along the chain named.

Biotinylated human Amyloid beta 1-42 peptide (human), sequence (peptide, as listed by the source): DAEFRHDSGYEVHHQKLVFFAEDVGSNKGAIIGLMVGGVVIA

B1: Abet0007 scFv (scFv, part only; not given: Linker, tags and domain order, V domains shown, not shown: another chain or arm of the molecule; small tags and cut ends)
VH: EVQLLESGGGLVQPGGSLRLSCAASGFTFSVYTMWWVRQAPGKGLEWVSVIGSSGGTTVYADSVKGRFTISRDNSKNTLYLQMNSLRAEDTAVYYCAREGQQLVRPYYYYGMDVWGQGTLVTVSS
VL: QSVLTQPPSVSVSPGQTASITCSGHNLEDKFASWYQQKSGQSPVLVIYRDDKRPSGIPERFSASNSGHTATLTISGTQATDEADYYCQAQDSTTRVFGGGTKLTVL
In the case of B1, the IC50 (as a rule, the concentration at which inhibition is half-maximal) in test [1] is 159 nM.

B2: Abet0144 scFv (scFv, part only; not given: Linker, tags and domain order, V domains shown, not shown: another chain or arm of the molecule; small tags and cut ends)
VH: B1 VH with G100W, Q101M, Q102D, L103H, V104S
VL: B1 VL
Consider B2, for which, in test [2], the Kd (as a rule, a measure of binding affinity in units of concentration) came to 33.2 nM; the koff – broadly, a measure of how fast the partners let go of each other – amounted to 0.00666 s⁻¹; the kon (in general, a measure of how fast the partners come together) was determined as 201000 M⁻¹ s⁻¹. In test [1], this molecule came in with an IC50 of 5.5 nM.

The values are drawn from patent publication US20180105585A1.
